Assay: soluble on expression in E. coli; label from the status in PepcDB or PDB records

In the case of “MGSDKIHHHHHHMRVLIINTSERIGGAAVAAGRLMESLKNNGIKAKMLVRDKQTDQISVVGLKGSWLHVWKFMWERIVIWKANRFKKNDLFAVDIANTGTDITSLPEFQQADVIHLHWINQGMLSLNTIRKILTSGKPVVWTMHDMWPCTGICHYARECKNYEQECHHCPYIYGGGGKKDLSTRIFRKKKEIYSQASITFVGCSRWLAEKAKVSGLLTGQTVISIPNAINTNLFKPHNKQEARRKCRLPQEGKLILFGSVKITDKRKGIDYLIEACKLLAEKHPEWKESLGVVVFGNQSQQLQDLIPFRVYPLPYIKNEHELVDIYNAVDLFAIPSLEENLPNMVMEAMSCGVPCVGFNTGGIPEMIDHLHNGYVAQRKSSEDLANGIHWVLTEPEYAELSAQACRKAIGNYSESIIAKKYTEVYNKITGKYA”, the “soluble on expression in E. coli” value was “not soluble”.

With “MGSDKIHHHHHHMSNRQEQPHFNDWFQARGITEVECLVTDLTGILKGKIMPAGKYLGGGRPRLPDSIFIQTVTGGYPDDDDIHFWNPAERDMELVPDPNAVFLVPWADDPTAQIIHDCHYLTGEPVELAPRHVLKRVLACYQARGWKPVVAPEVEFFLVKTNTDSDYPLEPPIGRNGRQESSRQSFSIDAVNEFDPLFEEMYDYCDAMSLDLDTLIHEEGAGQMEVNFQHGDPLHLADQVVMFKRALRETALRHGMYATFMAKPMANEPGSSMHLHQSLLDAQSGDNLFASDNGQSSRLFQHFIGGLQRYLPASMPLLAPNVNSYRRLMRTETSGSAPINVEWGTDNRTVGLRVPVSTPEATRVENRLAGADANPYLVMAASLACGYLGMLGQLEPRPPMVGSAWSGGHKLPDDIRPALDMLSECQPLAEILGERFTNSYLAVKRAEHREYFQVISSWEREHLLLRV” the “soluble on expression in E. coli” value was “not soluble”.

In the case of “MQLRKMQTIKKEPAPLDPTSSSDKMLLLNSALAEVAEDLASGEDLLLNEGSMGKNKSSACRRKREFIPDEKKDAMYWEKRRKNNEAAKRSREKRRLNDLVLENKLIALGEENATLKAELLSLKLKFGLISSTAYAQEIQKLSNSTAVYFQDYQTSKAAVSSFVDEHEPAMVAGSCISVIKHSPQSSLSDVSEVSSVEHTQESPAQGGCRSPENKFPVIKQEPVELESFAREAREERGTYSTSIYQSYMGSSFSTYSHSPPLLQVHGSTSNSPRTSEADEGVVGKSSDGEDEQQVPKGPIHSPVELQRVHATVVKVPEVNPSALPHKLRIKAKAMQVKVEALDSEFEGMQKLSSPADAIAKRHFDLEKHGTSGMAHSSLPPFSVQVTNIQDWSLKSEHWHHKELSSKTQSSFKTGVVEVKDGGYKVSEAENLYLKQGIANLSAEVVSLKRFIATQPISASDSR”, the “soluble on expression in E. coli” value was “not soluble”.

For “MGSSHHHHHHSSGLVPRGSHMNNIDFDSIAKMLLIKYKDFILSKFKKAAPVENIRFQNLVHTNQFAQGVLGQSQHLCTVYDNPSWHSIVLETLDLDLIYKNVDKEFAKDGHAEGENIYTDYLVKELLRYFKQDFFKWCNKPDCNHCGQNTSENMTPLGSQGPNGEESKFNCGTVEIYKCNRCGNITRFPRYNDPIKLLETRKGRCGEWCNLFTLILKSFGLDVRYVWNREDHVWCEYFSNFLNRWVHVDSCEQSFDQPYIYSINWNKKMSYCIAFGKDGVVDVSKRYILQNELPRDQIKEEDLKFLCQFITKRLRYSLNDDEIYQLACRDEQEQIELIRGKTQETKSESVSAASK”, the “soluble on expression in E. coli” value was “soluble”.

In the case of “DMPRPTGLAADIRWTAYGVPHIRAKDERGLGYGIGYAYARDNACLLAEEIVTARGERARYFGSEGKSSAELDNLPSDIFYAWLNQPEALQAFWQAQTPAVRQLLEGYAAGFNRFLREADGKTTSCLGQPWLRAIATDDLLRLTRRLLVEGGVGQFADALVAAAPPGAEKV”, the “soluble on expression in E. coli” value was “soluble”.

In the case of “MSLEMLGIDVVIPDISYLIERADRVKAIFLTHGHDENIGGVFYLLNKLSVPVYGTKLTLALLREKLKQYGHNRKTDLREIHSKSVITFQSTKVSFFRTIHSIPDSVGVSFKTSLGSIVSAGDFKFDQTPALNQTCDIGEIAKIGNSGVLALLSDSANVERPGYTPSEAAVSGEISDALYNSQNRVIIAVFASNINRIQQVIHAAAQNGRKIAVAGKNLQSVLQLARKLGYIEADDELFISVQDVKKYPKREVAIITAGSQGEPLAALTRMANKAHKQLNIEEGDTVVIASTPIPGQELIYSKTVDLLARAGAQVIFAQKRVHVSGHGSQEELKLMINLLKPKYLIPVNGEYRMQKAHSKIAEETGMKRSDIFLIEKGDVVEFRGQNVKIGDKVPYGNILIDGLGVGDIGNIVLRDRRLLSQDGILEGHHHHHH”, the “soluble on expression in E. coli” value was “not soluble”.

For “SLVSAQRAIIDPEGKVLINKVNFIDGGLKAPDEVVRKMVRMGTNIIGEPVCGLYPARLIALTSGYSARIPYTIDLDFWMQLLRLGKLWMIDEPLCAFRISNLSWSSRIGEMRHKQFLAFMEEVAADELFQINDLDLFIGRFNSAVQSMTSLMGFKLFAGSAAEKRVIAVQ”, the “soluble on expression in E. coli” value was “not soluble”.

For “MGSDKIHHHHHHATCCAANGEGNCPEGTCRKECTNACNTNNQKNKTMAYSKKYTNADFYKDGKFQQDVAMEAMKDMFAFYDVPFTELMAKDMWVTDFGLGDFENVGMGGIFWINDPEYKYFAHAIYLLPGQMIPEHAHVKTDFPAKHESWMVEKGWVYNFSEVGDETPNAPAIPAGHGPIKSKNFVVQKVGDVLRLKKLETFHFMMAGPEGAIVDEWACYHDNAGLRFTNQKAAL”, the “soluble on expression in E. coli” value was “not soluble”.

In the case of “MLIISNAVHLPDHEIELNAIRAQGAGGQNVNKVSSAVHLRFDIQASSLPPFYKERLLALNDQRISGDGVVVIKAQQYRTQEQNREDALERLAELIRSVAKVQKARRPTKPTRGSQKRRLDGKAKRGAVKAGRGKVDFLEHHHHHH”, the “soluble on expression in E. coli” value was “not soluble”.

With “MSVEKLIVDHMETWTSALQTRSTAGRGSSGKIDLYGIKKLRELILELAVRGKLVPQDPNDEPASDLLKRIAAEKAELVKQGKIKKQKPLPEISEEEKPFELPEGWEWVHLPDIYCSISESSRKIKSSEILPEGKYPVIEQSQEFISGYCNNECLLIKLNNPVIVFGDHTRNIKFIDFDFVVGADGVKILSPILICERFFFWQLRSFKLDVRGYARHFKVLNSCLFALPPIAEQERIVEKVSSLMSLCDQLEQQSLTSLDAHQQLVETLLGTLTDSQNTAELAENWARISEHFDTLFTTEASVDALKQTILQLAVMGKLVPQDPNDEPASELLKRIAQEKAQLVKEGKIQKPLPPISDEEKPFELPEGWEWCRIGNIVNIKSELVSPKDYLNLYQVAPDIIEKGTGRVISKRTVKESGVKGPNSRFYKGQIVYSKIRPSLSKVFLAEYNGLCSADMYPLDCYINPNYLLKYILSIPFLMQVKKAENRIKMPKLNSDSFYNIIVAIPPYNEQQAIFDKINSIEAVCNGLISYIGIYHKTQLHLADALTDAAIN” the “soluble on expression in E. coli” value was “not soluble”.

In the case of “GHHHHHHHHHHSSGHIEGRHNMPVVIKTEGPAWTPLEPKLITRLADTVRTKGLRSPITMAEVEALMSSPLLPHDVTNLMRVILGPAPYALWMDAWGVQLQTVIAAATRDPRHPANGQGRGERTNLDRLKGLADGMVGNPQGQAALLRPGELVAITASALQAFREVARLAEPAGPWADITQGPSESFVDFANRLIKAVEGSDLPPSARAPVIIDCFRQKSQPDIQQLIRAAPSTLTTPGEIIKYVLDRQKIAPLTDQGIAAAM”, the “soluble on expression in E. coli” value was “soluble”.

In the case of “MKTHQYELIDEKVFEHEFDNGLKLFIIPKPGFQKTYVTYTTQFGSLDNHFKPIGSQQFVKVPDGVAHFLEHKLFEKEDEDLFTAFAEENAQANAFTSFDRTSYLFSATSNIESNIKRLLNMVETPYFTEETVNKEKGIIAEEIKMYQEQPGYKLMFNTLRAMYSKHPIRVDIAGSVESIYEITKDDLYLCYETFYHPSNMVLFVVGDVSPQSIIKLVEKH”, the “soluble on expression in E. coli” value was “not soluble”.

In the case of “MGSDKIHHHHHHMDISDIAANDYVEVDAEQRLGKVRSLFERENPKGVIVTEAGAYDGVITERQLIQSHIGDDTRVAAMVTDAPKVSRTEDVRETARMLVEGGTKIAPVFEAGSLWGVITEDAILDAVLANLDALDVRDIYTEHVVTVDEDDSMGRVINLLREHGISRLPVVDDAGLLSGIVTRYDIVDFVVRDTEKTTVGDRSGEIERLLDLPVSDEMTSPVKTASFDDSVRDAVDDMLAHDYSGVIVTPDDDERAVGGILTKTDVLRALSYTEEEHLDVQITNIDLLDTLSRQEVRERIENVVAKYGDMDVHHAHVRLSKHKEKLRGTPLIQSQIRLRTNKGQIAGTGEGYGADNSFHVALDKLERNVLELKGIEHDEEYEGQLLRKLNDL”, the “soluble on expression in E. coli” value was “not soluble”.

With “MKTDGEFVSEHLMELITQQNLTINRVATLAGLNQSTVNAMFEGRSKRPTITTIRKVCGTLGISVHDFFDFPPYNEVEK” the “soluble on expression in E. coli” value was “soluble”.

For “MCENLYGEEYKMEILRLQKMMNNMTCGQMAKPLTMKDFQIHQALGKGAYGNVYRVRSLHDGKDYALKQIMISSKNEGIPQSVLREITVMKHLARKAHPNIISLKSVFHQLDPVRAILKINMIMERCDWDLHTFLRNIPRGVPEQQAKHVTAQIVRALDFLHTHSIIHRDLKPQNILLNRDQTVKLADFGLSKEYSNTTAFTTLVVTLWYRSPEVLLQSYYNSTVDMWALGCIVSEIYCRQPLFVGQNEAEQLTDIFKKMGTPVGKDWPSESVIARDSFPQYRPTNLKDLSPQMSKQAIEFVQQCLRYDHSKRLSARGALSHPFLKPAVATKSRVLKQINFNK”, the “soluble on expression in E. coli” value was “not soluble”.

In the case of “MKAVTYDTDSELAYIYVLPPKKNRNVRTEELRVNDCLLLDISQDGKIAGFECFGEAAHLCAPFAGKSRLYVKDSDGYHFRVCQHASVRSCYTVYRVTFCFSDGDYQEFAGFDLDGTMYHSAFLQRLTEKLEHHHHHH”, the “soluble on expression in E. coli” value was “not soluble”.

For “GPGSMCKLHVKRTAAHSSCAVTKDNFNAIGYGARLVFKICNIADCIVRNGESNRVLSVSSTIMSMSVIHGGITIQTIPVHCVFNYELCNPLRMAHVDRQKCAPGYVVSDPLPEINEYSDADVVIKNLLSAHSLHDAHEKNAFTALVRAMISDRDMQKLGGNTEADQYALIGVFLILYGPGSIKIANQENELVPKKHVDYCGKKQIMNLTRKNHDT”, the “soluble on expression in E. coli” value was “not soluble”.

In the case of “MTNLMSALSKLSQALDSKNIGEVLLALQNFDEEFSAEKCEDVFVRCLQEIISWDLTVSLEISETVVRQMMNRLENQAVLEEMCNYIIKQQSSVTVEIAVEIMIEHGWILRTDDCREVWKQIESAKNTEKIEILARRMTANCRILRLSGAPKRFLEKLLKDVIISLNANKVNIPMKFLNELAIVSPFHPILVIEDFKKDSEYFYIPHVVSEETRFHLEVKEFTNFFQIESTYHKEQACQMLQVFNQIYKRMELIPQLEAPEIDKIVEFWLAALRIFNGYGIGMNDITESAKLLEKTASRYSLKSRPLFLKHFLKKISEKKDTNIGLEPQVVATIITTYQRNAFGLRSPEFYEELGEFWALCLKIKYDDVYFATVYFSAVFALAQAQAVFKIKKELCREVYHKILQPMHEQLVDFVKLKQVESNKATSEEEVMRLEHQNIGASYFSILTCTYKNAEDRILEFMKEN”, the “soluble on expression in E. coli” value was “not soluble”.

In the case of “IGKVKYNLGFNLYDAKTKITKYNNETGLFGKDKNDKDTYRVGMELGEIWGYVTDRLYTVDDFDADGKLKAGIPKVEGYNPNPGDILYKDLDDNDIINGGTSTTKDPGDRKIIGNSTRRYQYGIHGGANWKGVSLSFLLQGVGKRDLWIMNDLFYPHYDAWTTVYDTQLNYWTPERTDSYFPRLYEKAAGNTAANTRIQTRYLQDGSYLSIRNITLSYNFPSKWMTKIGVNNLAVFFSGENLYTFDHLPKGLDPERSVTDDLGQRGFTYPYMRQYSFGINLSF”, the “soluble on expression in E. coli” value was “not soluble”.

In the case of “LNLSEKQVVKIGILQYVTHDALDAIEKGVEDGLAQEGYKGKKVKLTVLNAEADQSKIQAMSKQLVNHHNDILIGIATPSAQGLAASTKDTPIIMGAVSDPLGAKLVTNMKKPTTNVTGLSNVVPTKQTVQLIKDITPNIKRIGILYASSEDNSVSQVTEFTKYAQKAGLEVLKYSVPSTNEIKTSMSVMTKKVDAVFVPQDNTIASAFRTVIVAANQANIPVYSSVDTMVEQGSIASVAQSQYGLGLETAKQAIKVLRGKPVKDVPVKVIDTGKPSLNLKAAKHLGIKIPKKIMKQAEITVKVD”, the “soluble on expression in E. coli” value was “not soluble”.

Reference: the DeepSol protein solubility set
